Among the data in patent US20180346602A1 are signal [OD405 nm] values, retold here.

Numbering of substitutions follows the chain as printed.

The target of assay [1] is anti-VEGF/ANG2 antibody (IgG1 subclass with mutations P329G/L234A/L235A/I253A/H310A/H435A) [IgG part: P01857]. Nature of the assay: sandwich ELISA in serum; capture M1.3.17, tracer M1.7.24; anti-VEGF/ANG2 antibody 2500 ng/mL.
Assay [2] shares this target. Nature of the assay: bridging ELISA; biotinylated and digoxigenylated anti-VEGF/ANG2 antibody bridged by M1.3.17 at 250 ng/mL.
Assay [3] deals with anti-VEGF/ANG2 antibody (IgG1 subclass with mutations P329G/L234A/L235A/I253A/H310A/H435A) (human) [IgG part: P01857]. Nature of the assay: sandwich ELISA in serum; M1.3.17-Bi capture on SA plate; tracer anti-human kappa M1.7.10-Dig; analyte 5 ng/mL. A general note: ELISA stands for enzyme-linked immunosorbent assay.
The target of assay [4] is anti-VEGF/ANG2 antibody (IgG1 subclass with mutations P329G/L234A/L235A/I253A/H310A/H435A) [IgG part: P01857]. The experiment in a line: bridging ELISA; biotinylated and digoxigenylated anti-VEGF/ANG2 antibody bridged by M1.3.17 at 15.625 ng/mL.
The target is the same in assay [5]. Nature of the assay: bridging ELISA; biotinylated and digoxigenylated anti-VEGF/ANG2 antibody bridged by M1.3.17 at 0 ng/mL (blank).
For assay [6] the target is unchanged. The experiment in a line: sandwich ELISA in serum; capture M1.3.17, tracer M1.7.24; anti-VEGF/ANG2 antibody 39.0625 ng/mL.
For assay [7] the target is unchanged. Nature of the assay: sandwich ELISA in serum; capture M1.7.10-Bi, tracer M1.7.24-Dig; anti-VEGF/ANG2 antibody 10 ng/mL.
Assay [8] shares this target. Nature of the assay: sandwich ELISA in serum; capture M1.7.10-Bi, tracer M1.7.24-Dig; anti-VEGF/ANG2 antibody 0.625 ng/mL.
Assay [9] has as its target cytokine (IL-2) antibody conjugate with the mutations P329G, L234A, L235A, I253A, H310A, and H435A. The experiment in a line: sandwich ELISA in serum; capture anti-IL2 antibody, tracer M1.7.24; conjugate 39.0625 ng/mL.

B1: anti-variant (human) Fc-region antibody M1.3.17 (antibody, V domains shown)
VH: EVKLLESGGGLVQPGGSLKLSCAASGIDFRRYWMNWVRQAPGKGLEWIGEIDPDSSTINYTPSLKDKFIISRDNAKNTMYLQMRKVRSEDTALYYCARPYDYGAWFAYWGQGTLVTVSA
VL: QAVVTQESALTTSPGETVTLTCRSTTGAVTTSNYANWVQEKPDHLFTGLIGGTNKRAPGVPARFSGSLIGDKAALTITGAQTEDEAIYFCALWYSDHWVFGGGTKLTVL
As to B1, the signal [OD405 nm] stood at 2.77 OD405 nm in [1]; 0.15 OD405 nm in [2]; 1.6 OD405 nm in [3]; 0.05 OD405 nm in assay [4]; 0.046 OD405 nm in assay [5]; 0.233 OD405 nm in assay [6].

B2: anti-variant (human) Fc-region antibody M1.7.24 (antibody, V domains shown)
VH: B1 VH with I27F, R30S, D52T, M79L, R84I, A97V, Y108S
VL: B1 VL with T25S, D96N
With B2, the figures for the signal [OD405 nm] in assay [7], in [8] and in assay [9] were 2.76 OD405 nm, 0.468 OD405 nm and 0.101 OD405 nm, respectively.
